Test results taken from the Human Domainome abundance scans (Beltran et al. 2025).
± gives the uncertainty stated by the source.

B1: PDZ and LIM domain protein 2, residues 284 to 339; numbered along this chain, Q96JY6 (parent)
chain: HTCEKCSTSIANQAVRIQEGRYRHPGCYTCADCGLNLKMRGHFWVGDELYCEKHAR

Variants of: B1
Assay: abundance fitness (aPCA) (normalised: wild type 0, dead -1); higher = more abundant; growth selection in yeast, the domain comes from the species named
Conditions: Homo sapiens

Variant	abundance fitness
HTCEKCSTSIANQAVRIQEGRYRHPGTYTCADCGLNLKMRGHFWVGDELYCEKHAR [C27T]	-0.442 ± 0.071
HTCEKCSTSIANQAVRIQEGRYRHPGMYTCADCGLNLKMRGHFWVGDELYCEKHAR [C27M]	-0.627 ± 0.099
HTCEKCSTSIANQAVRIQEGRYRHPGGYTCADCGLNLKMRGHFWVGDELYCEKHAR [C27G]	-0.514 ± 0.098
HTCEKCSTSIANQAVRIQEGRYRHPGSYTCADCGLNLKMRGHFWVGDELYCEKHAR [C27S]	-0.598 ± 0.11
HTCEKCSTSIANQAVRIQEGRYRHPGAYTCADCGLNLKMRGHFWVGDELYCEKHAR [C27A]	-0.428 ± 0.087
HTCEKCSTSIANQAVRIQEGRYRHPGFYTCADCGLNLKMRGHFWVGDELYCEKHAR [C27F]	-1.02 ± 0.3
HTCEKCSTSIANQAVRIQEGRYRHPGPYTCADCGLNLKMRGHFWVGDELYCEKHAR [C27P]	-0.425 ± 0.083
HTCEKCSTSIANQAVRIQEGRYRHPGEYTCADCGLNLKMRGHFWVGDELYCEKHAR [C27E]	-0.105 ± 0.12
HTCEKCSTSIANQAVRIQEGRYRHPGNYTCADCGLNLKMRGHFWVGDELYCEKHAR [C27N]	-0.826 ± 0.33
HTCEKCSTSIANQAVRIQEGRYRHPGVYTCADCGLNLKMRGHFWVGDELYCEKHAR [C27V]	-0.661 ± 0.12
HTCEKCSTSIANQAVRIQEGRYRHPGKYTCADCGLNLKMRGHFWVGDELYCEKHAR [C27K]	-0.39 ± 0.088
HTCEKCSTSIANQAVRIQEGRYRHPGYYTCADCGLNLKMRGHFWVGDELYCEKHAR [C27Y]	-0.885 ± 0.22
HTCEKCSTSIANQAVRIQEGRYRHPGLYTCADCGLNLKMRGHFWVGDELYCEKHAR [C27L]	-0.535 ± 0.062
HTCEKCSTSIANQAVRIQEGRYRHPGRYTCADCGLNLKMRGHFWVGDELYCEKHAR [C27R]	-0.838 ± 0.12
HTCEKCSTSIANQAVRIQEGRYRHPGWYTCADCGLNLKMRGHFWVGDELYCEKHAR [C27W]	-0.602 ± 0.12
HTCEKCSTSIANQAVRIQEGRYRHPGQYTCADCGLNLKMRGHFWVGDELYCEKHAR [C27Q]	-0.268 ± 0.075
HTCEKCSTSIANQAVRIQEGRYRHPGIYTCADCGLNLKMRGHFWVGDELYCEKHAR [C27I]	-0.904 ± 0.28
HTCEKCSTSIANQAVRIQEGRYRHPDCYTCADCGLNLKMRGHFWVGDELYCEKHAR [G26D]	0.227 ± 0.073
HTCEKCSTSIANQAVRIQEGRYRHPNCYTCADCGLNLKMRGHFWVGDELYCEKHAR [G26N]	-0.083 ± 0.12
HTCEKCSTSIANQAVRIQEGRYRHPRCYTCADCGLNLKMRGHFWVGDELYCEKHAR [G26R]	0.127 ± 0.068
HTCEKCSTSIANQAVRIQEGRYRHPACYTCADCGLNLKMRGHFWVGDELYCEKHAR [G26A]	0.033 ± 0.091
HTCEKCSTSIANQAVRIQEGRYRHPQCYTCADCGLNLKMRGHFWVGDELYCEKHAR [G26Q]	0.232 ± 0.077
HTCEKCSTSIANQAVRIQEGRYRHPVCYTCADCGLNLKMRGHFWVGDELYCEKHAR [G26V]	0.101 ± 0.071
HTCEKCSTSIANQAVRIQEGRYRHPPCYTCADCGLNLKMRGHFWVGDELYCEKHAR [G26P]	-0.016 ± 0.082

Variant	abundance fitness
HTCEKCSTSIANQAVRIQEGRYRHPCCYTCADCGLNLKMRGHFWVGDELYCEKHAR [G26C]	0.006 ± 0.11
HTCEKCSTSIANQAVRIQEGRYRHPWCYTCADCGLNLKMRGHFWVGDELYCEKHAR [G26W]	0.072 ± 0.1
HTCEKCSTSIANQAVRIQEGRYRHPHCYTCADCGLNLKMRGHFWVGDELYCEKHAR [G26H]	0.525 ± 0.14
HTCEKCSTSIANQAVRIQEGRYRHPICYTCADCGLNLKMRGHFWVGDELYCEKHAR [G26I]	0.08 ± 0.2
HTCEKCSTSIANQAVRIQEGRYRHPFCYTCADCGLNLKMRGHFWVGDELYCEKHAR [G26F]	0.19 ± 0.091
HTCEKCSTSIANQAVRIQEGRYRHPKCYTCADCGLNLKMRGHFWVGDELYCEKHAR [G26K]	0.209 ± 0.084
HTCEKCSTSIANQAVRIQEGRYRHPTCYTCADCGLNLKMRGHFWVGDELYCEKHAR [G26T]	0.158 ± 0.08
HTCEKCSTSIANQAVRIQEGRYRHPLCYTCADCGLNLKMRGHFWVGDELYCEKHAR [G26L]	0.122 ± 0.064
HTCEKCSTSIANQAVRIQEGRYRHPMCYTCADCGLNLKMRGHFWVGDELYCEKHAR [G26M]	0.037 ± 0.092
HTCEKCSTSIANQAVRIQEGRYRHPSCYTCADCGLNLKMRGHFWVGDELYCEKHAR [G26S]	0.069 ± 0.071
HTCEKCSTSIANQAVRIQEGRYRHPECYTCADCGLNLKMRGHFWVGDELYCEKHAR [G26E]	0.277 ± 0.11
HTCEKCSTSIANQAVRIQEGRYRHPGCMTCADCGLNLKMRGHFWVGDELYCEKHAR [Y28M]	-0.13 ± 0.11
HTCEKCSTSIANQAVRIQEGRYRHPGCPTCADCGLNLKMRGHFWVGDELYCEKHAR [Y28P]	-0.752 ± 0.21
HTCEKCSTSIANQAVRIQEGRYRHPGCSTCADCGLNLKMRGHFWVGDELYCEKHAR [Y28S]	-0.179 ± 0.068
HTCEKCSTSIANQAVRIQEGRYRHPGCHTCADCGLNLKMRGHFWVGDELYCEKHAR [Y28H]	-0.225 ± 0.095
HTCEKCSTSIANQAVRIQEGRYRHPGCKTCADCGLNLKMRGHFWVGDELYCEKHAR [Y28K]	-0.434 ± 0.14
HTCEKCSTSIANQAVRIQEGRYRHPGCCTCADCGLNLKMRGHFWVGDELYCEKHAR [Y28C]	-0.187 ± 0.12
HTCEKCSTSIANQAVRIQEGRYRHPGCFTCADCGLNLKMRGHFWVGDELYCEKHAR [Y28F]	-0.364 ± 0.13
HTCEKCSTSIANQAVRIQEGRYRHPGCETCADCGLNLKMRGHFWVGDELYCEKHAR [Y28E]	-0.548 ± 0.16
HTCEKCSTSIANQAVRIQEGRYRHPGCLTCADCGLNLKMRGHFWVGDELYCEKHAR [Y28L]	-0.262 ± 0.098
HTCEKCSTSIANQAVRIQEGRYRHPGCNTCADCGLNLKMRGHFWVGDELYCEKHAR [Y28N]	-0.294 ± 0.12
HTCEKCSTSIANQAVRIQEGRYRHPGCQTCADCGLNLKMRGHFWVGDELYCEKHAR [Y28Q]	-0.246 ± 0.11
HTCEKCSTSIANQAVRIQEGRYRHPGCGTCADCGLNLKMRGHFWVGDELYCEKHAR [Y28G]	-0.471 ± 0.11
